Numbered stars: 1 amine (or outer) side, 2 acyl side, 3 side chain; on linkers, the order of the positions; unused ones are H or OH. Square brackets hold non-standard residues; d marks the D form. Side chains are listed from the residue outwards. * marks the point of attachment. C20 diacid = O=C(O)CCCCCCCCCCCCCCCCCCC(=O)*; C18 diacid = O=C(O)CCCCCCCCCCCCCCCCC(=O)*; γGlu = O=C(O)[C@H](CCC(=O)[*:2])N[*:1]; KEK = Lys-Glu-Lys peptide sequence; AEEA = NCCOCCOCC(=O)O; Aib = CC(C)(N)C(=O)O
Tests used:
[1] = molecular target: T1, human GLP-2 receptor (hGLP2-R) (human, UniProt O95838); experiment: cell-based or functional assay
T1 sequence: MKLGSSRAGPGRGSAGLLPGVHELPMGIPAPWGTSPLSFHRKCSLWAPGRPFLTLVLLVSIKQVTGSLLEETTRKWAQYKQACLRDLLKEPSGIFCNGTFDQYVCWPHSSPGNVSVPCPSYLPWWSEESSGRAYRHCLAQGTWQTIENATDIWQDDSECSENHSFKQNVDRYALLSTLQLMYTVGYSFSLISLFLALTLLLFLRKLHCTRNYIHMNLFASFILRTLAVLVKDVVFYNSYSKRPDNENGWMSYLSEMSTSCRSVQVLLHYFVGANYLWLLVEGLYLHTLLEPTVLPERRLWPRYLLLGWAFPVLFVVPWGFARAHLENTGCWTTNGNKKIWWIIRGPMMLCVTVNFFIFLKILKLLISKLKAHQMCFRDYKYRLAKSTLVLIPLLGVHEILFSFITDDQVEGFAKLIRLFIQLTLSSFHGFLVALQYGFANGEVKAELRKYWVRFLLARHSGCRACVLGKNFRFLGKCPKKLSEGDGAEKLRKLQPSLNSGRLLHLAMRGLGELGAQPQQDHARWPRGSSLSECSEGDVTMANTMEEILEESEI

[2] = molecular target: human glucagon-like peptide 1 receptor (GLP-1R) (human, UniProt P43220); experiment: cell-based or functional assay

| Binder | EC50 GLP-2 (nM), cAMP AlphaScreen [1] | EC50 GLP-1 (nM), cAMP AlphaScreen [2] |
| --- | --- | --- |
| H-H[Aib]EGTFSSELATILDK([AEEA-KEK-γGlu-C18 diacid])QAARDFIAWLIEHKITD-OH [Compound 49] | 0.044 nM | 0.27 nM |
| H-H[Aib]EGSFTSELATILDK([AEEA-KEK-γGlu-C20 diacid])QAARDFIAWLIAHKITD-OH [Compound 58] | 0.09 nM | 0.089 nM |
| H-H[Aib]EGSFTSELATILDK([AEEA-AEEA-KEK-γGlu-C20 diacid])QAARDFIAWLIEHKITD-OH [Compound 60] | 0.074 nM | 0.097 nM |
| H-H[Aib]EGSFTSELATILDAK([AEEA-KEK-γGlu-C20 diacid])AARDFIAWLIEHKITD-OH [Compound 62] | 0.15 nM | 0.27 nM |
| H-H[Aib]EGTFTSEK([AEEA-KEK-γGlu-C20 diacid])ATILDEQAARDFIAWLIEHKITD-OH [Compound 54] | 0.99 nM | 0.034 nM |
| H-H[Aib]EGSFTSEK([AEEA-AEEA-KEK-γGlu-C20 diacid])ATILDEQAARDFIAWLIEHKITD-OH [Compound 55] | 0.78 nM | 0.11 nM |
| H-H[Aib]EGSFTSELATILDAK([AEEA-AEEA-KEK-γGlu-C20 diacid])AARDFIAWLIEHKITD-OH [Compound 63] | 0.17 nM | 0.31 nM |
| H-H[Aib]EGTFSSELATILDK([γGlu-C18 diacid])EAARDFIAWLIEHKITD-OH (SMILES CC[C@H](C)[C@H](NC(=O)[C@H](Cc1ccccc1)NC(=O)[C@H](CC(=O)O)NC(=O)[C@H](CCCNC(=N)N)NC(=O)[C@H](C)NC(=O)[C@H](C)NC(=O)[C@H](CCC(=O)O)NC(=O)[C@H](CCCCNC(=O)CC[C@H](NC(=O)CCCCCCCCCCCCCCCCC(=O)O)C(=O)O)NC(=O)[C@H](CC(=O)O)NC(=O)[C@H](CC(C)C)NC(=O)[C@@H](NC(=O)[C@@H](NC(=O)[C@H](C)NC(=O)[C@H](CC(C)C)NC(=O)[C@H](CCC(=O)O)NC(=O)[C@H](CO)NC(=O)[C@H](CO)NC(=O)[C@H](Cc1ccccc1)NC(=O)[C@@H](NC(=O)CNC(=O)[C@H](CCC(=O)O)NC(=O)C(C)(C)NC(=O)[C@@H](N)Cc1c[nH]cn1)[C@@H](C)O)[C@@H](C)O)[C@@H](C)CC)C(=O)N[C@@H](C)C(=O)N[C@@H](Cc1c[nH]c2ccccc12)C(=O)N[C@@H](CC(C)C)C(=O)N[C@H](C(=O)N[C@@H](CCC(=O)O)C(=O)N[C@@H](Cc1c[nH]cn1)C(=O)N[C@@H](CCCCN)C(=O)N[C@H](C(=O)N[C@H](C(=O)N[C@@H](CC(=O)O)C(=O)O)[C@@H](C)O)[C@@H](C)CC)[C@@H](C)CC) [Compound 1] | 0.35 nM | 0.63 nM |
| H-H[Aib]EGTFSSELATILDK([AEEA-KEK-γGlu-C20 diacid])QAARDFIAWLIEHKITD-OH [Compound 50] | 0.056 nM | 0.31 nM |
| H-H[Aib]EGSFTSELATILEGK([AEEA-KEK-γGlu-C20 diacid])AARDFIAWLIEHKITD-OH [Compound 61] | 0.2 nM | 0.13 nM |
| H-H[Aib]EGTFTSELATILDK([KEK-γGlu-C20 diacid])QAARDFIAWLIQHKITD-OH [Compound 51] | 0.18 nM | 0.02 nM |
| H-H[Aib]EGSFTSEK([AEEA-KEK-γGlu-C20 diacid])ATILDEQAARDFIAWLIEHKITD-OH [Compound 53] | 0.24 nM | 0.076 nM |
| H-H[Aib]EGTFSSELATILDK([AEEA-KEK-γGlu-C20 diacid])QAARDFIAWLIQHKITD-OH [Compound 48] | 0.054 nM | 0.47 nM |
| H-H[Aib]EGTFTSELATILDK([γGlu-C18 diacid])EAARDFIAWLIEHKITD-OH (SMILES CC[C@H](C)[C@H](NC(=O)[C@H](Cc1ccccc1)NC(=O)[C@H](CC(=O)O)NC(=O)[C@H](CCCNC(=N)N)NC(=O)[C@H](C)NC(=O)[C@H](C)NC(=O)[C@H](CCC(=O)O)NC(=O)[C@H](CCCCNC(=O)CC[C@H](NC(=O)CCCCCCCCCCCCCCCCC(=O)O)C(=O)O)NC(=O)[C@H](CC(=O)O)NC(=O)[C@H](CC(C)C)NC(=O)[C@@H](NC(=O)[C@@H](NC(=O)[C@H](C)NC(=O)[C@H](CC(C)C)NC(=O)[C@H](CCC(=O)O)NC(=O)[C@H](CO)NC(=O)[C@@H](NC(=O)[C@H](Cc1ccccc1)NC(=O)[C@@H](NC(=O)CNC(=O)[C@H](CCC(=O)O)NC(=O)C(C)(C)NC(=O)[C@@H](N)Cc1c[nH]cn1)[C@@H](C)O)[C@@H](C)O)[C@@H](C)O)[C@@H](C)CC)C(=O)N[C@@H](C)C(=O)N[C@@H](Cc1c[nH]c2ccccc12)C(=O)N[C@@H](CC(C)C)C(=O)N[C@H](C(=O)N[C@@H](CCC(=O)O)C(=O)N[C@@H](Cc1c[nH]cn1)C(=O)N[C@@H](CCCCN)C(=O)N[C@H](C(=O)N[C@H](C(=O)N[C@@H](CC(=O)O)C(=O)O)[C@@H](C)O)[C@@H](C)CC)[C@@H](C)CC) [Compound 3] | 0.33 nM | 0.042 nM |
| H-H[Aib]EGTFTSELATILDK([AEEA-KEK-γGlu-C20 diacid])QAARDFIAWLIEHKITD-OH [Compound 56] | 0.076 nM | 0.033 nM |
| H-H[Aib]EGSFTSELATILDK([AEEA-KEK-γGlu-C20 diacid])QAARDFIAWLIEHKITD-OH [Compound 57] | 0.083 nM | 0.093 nM |
| H-H[Aib]EGTFSSELATILDK([AEEA-KEK-γGlu-C18 diacid])QAARDFIAWLIQHKITD-OH [Compound 47] | 0.048 nM | 0.44 nM |
| H-H[Aib]EGTFTSELATILDK([AEEA-KEK-γGlu-C20 diacid])QAARDFIAWLIQHKITD-OH [Compound 52] | 0.075 nM | 0.02 nM |
| H-H[Aib]EGSFTSELATILDK([γGlu-C18 diacid])EAARDFIAWLIEHKITD-OH (SMILES CC[C@H](C)[C@H](NC(=O)[C@H](Cc1ccccc1)NC(=O)[C@H](CC(=O)O)NC(=O)[C@H](CCCNC(=N)N)NC(=O)[C@H](C)NC(=O)[C@H](C)NC(=O)[C@H](CCC(=O)O)NC(=O)[C@H](CCCCNC(=O)CC[C@H](NC(=O)CCCCCCCCCCCCCCCCC(=O)O)C(=O)O)NC(=O)[C@H](CC(=O)O)NC(=O)[C@H](CC(C)C)NC(=O)[C@@H](NC(=O)[C@@H](NC(=O)[C@H](C)NC(=O)[C@H](CC(C)C)NC(=O)[C@H](CCC(=O)O)NC(=O)[C@H](CO)NC(=O)[C@@H](NC(=O)[C@H](Cc1ccccc1)NC(=O)[C@H](CO)NC(=O)CNC(=O)[C@H](CCC(=O)O)NC(=O)C(C)(C)NC(=O)[C@@H](N)Cc1c[nH]cn1)[C@@H](C)O)[C@@H](C)O)[C@@H](C)CC)C(=O)N[C@@H](C)C(=O)N[C@@H](Cc1c[nH]c2ccccc12)C(=O)N[C@@H](CC(C)C)C(=O)N[C@H](C(=O)N[C@@H](CCC(=O)O)C(=O)N[C@@H](Cc1c[nH]cn1)C(=O)N[C@@H](CCCCN)C(=O)N[C@H](C(=O)N[C@H](C(=O)N[C@@H](CC(=O)O)C(=O)O)[C@@H](C)O)[C@@H](C)CC)[C@@H](C)CC) [Compound 2] | 0.25 nM | 0.13 nM |
| H-H[Aib]EGSFTSELATILDK([AEEA-KEK-γGlu-C20 diacid])KAARDFIAWLIEHKITD-OH [Compound 59] | 0.11 nM | 0.088 nM |

Reference: US20250073311A1, “DOSAGE REGIME” (ZEALAND PHARMA A/S, priority 2021, published 2025)
